Some results are limits rather than exact numbers.

Kd data for two molecules are collected here from patent US20170198014A1 (UNIVERSITY WASHINGTON THROUGH ITS CENTER FOR …, published 2017).

The target of assay [1] is T1, hemagglutinin H3 (A/Hong Kong/1/1968-H3N2) (influenza A virus A/Hong Kong/1/1968 …, UniProt Q91MA7 27-521). Kind of assay: BLI (FIG. 5).
Assay [2] deals with T1, hemagglutinin H3 (A/Hong …). The assay can be described thus: BLI (Octet), biotinylated HA on streptavidin sensors.
Assay [3] concerns the target hemagglutinin H1 (A/Solomon Islands/3/2006) (influenza A virus A/Solomon …). The assay is described as above.

B1: HAA.1 c fused to Hsc1-EA via a triLong linker, trimer (designed binder)
chain: MEEVVLITVPSEEVARTIAKALVEERLAACVNIVPGLTSIYRWQGEVVEDQELLLLVKTTTHAFPKLKERVKALHPYTVPEIVALPIAQGNQEYLDWLRENAGGGGSGGSGIVNVPNCNTTKYQQLARTAVAIYNYHEQAHLTFVENLNCKEQGNYYYITLAATDDAGKKAIYEAKIGVVESAGWTGVEEFKLV
B1 showed a Kd in assay [1] of less than 1 nM.

B2: Hsc1 (SEQ ID NO:135) fused to HAA.1c (SEQ ID NO:227) via the triLong linker (SEQ ID NO: 352), trimer (designed binder)
chain: MEEVVLITVPSEEVARTIAKALVEERLAACVNIVPGLTSIYRWQGEVVEDQELLLLVKTTTHAFPKLKERVKALHPYTVPEIVALPIAQGNQEYLDWLRENAGGGGSGGSGIVNVPNCNTTKYQQLARTAVAIYNYHEQAHLTFVENLNCKEQLGEGDYYYITLAATDDAGKKAIYEAKIGVVESAGWTGVEEFKLV
Consider B2, for which the Kd in assay [2] and in assay [3] was less than 1 nM each time.
